# Assays:
# [1] = tested on: T1, myostatin pro peptide (wild type)
# T1 sequence: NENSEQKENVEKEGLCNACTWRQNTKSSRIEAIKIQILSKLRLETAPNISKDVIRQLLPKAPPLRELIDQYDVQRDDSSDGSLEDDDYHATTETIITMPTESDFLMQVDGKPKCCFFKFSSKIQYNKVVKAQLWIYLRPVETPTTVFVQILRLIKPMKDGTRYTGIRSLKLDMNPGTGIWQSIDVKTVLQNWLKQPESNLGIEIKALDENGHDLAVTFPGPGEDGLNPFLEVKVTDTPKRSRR
# [2] = biological target: T2, myostatin pro peptide (wild type) (Homo sapiens (Human)) (UniProt O14793); test: cell-based or functional assay
# T2 sequence: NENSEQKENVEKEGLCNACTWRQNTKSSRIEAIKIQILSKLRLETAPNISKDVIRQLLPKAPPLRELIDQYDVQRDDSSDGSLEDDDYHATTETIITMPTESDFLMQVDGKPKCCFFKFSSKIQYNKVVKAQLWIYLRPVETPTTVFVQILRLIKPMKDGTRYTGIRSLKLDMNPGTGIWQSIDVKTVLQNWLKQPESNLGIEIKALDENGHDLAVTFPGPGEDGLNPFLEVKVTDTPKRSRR
# [3] = tested on: T3, 30-mer R to Q mutant peptide (SEQ ID NO:16)
# T3 sequence: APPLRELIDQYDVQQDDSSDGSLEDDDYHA
# [4] = tested on: T4, 40-mer wild type myostatin pro peptide peptide (SEQ ID NO:12)
# T4 sequence: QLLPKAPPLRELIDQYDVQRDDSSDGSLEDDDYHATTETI
# [5] = tested on: T5, 40-mer D to A mutant peptide (SEQ ID NO:14)
# T5 sequence: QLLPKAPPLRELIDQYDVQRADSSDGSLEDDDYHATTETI
# [6] = tested on: T6, 30-mer D to A mutant peptide (SEQ ID NO:17)
# T6 sequence: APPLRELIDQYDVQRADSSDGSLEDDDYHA
# [7] = tested on: T7, 20-mer wild type myostatin pro peptide peptide (SEQ ID NO:18)
# T7 sequence: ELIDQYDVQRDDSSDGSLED
# [8] = tested on: T8, 20-mer R to Q mutant peptide (SEQ ID NO:19)
# T8 sequence: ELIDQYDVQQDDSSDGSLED
# [9] = tested on: T9, 40-mer R to Q mutant peptide (SEQ ID NO:13)
# T9 sequence: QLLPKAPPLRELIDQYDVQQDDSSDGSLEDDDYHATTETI
# [10] = tested on: T10, 30-mer wild type myostatin pro peptide peptide (SEQ ID NO:15)
# T10 sequence: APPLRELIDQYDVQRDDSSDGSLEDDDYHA
# [11] = tested on: T11, 20-mer D to A mutant peptide (SEQ ID NO:20)
# T11 sequence: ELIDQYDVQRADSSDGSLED
Molecule,"partial proteolytic cleavage of pro peptide in the latent complex, western blot (FIG. 3E; 1 µg complex, 250 ng proteinase, 16 hours 37° C.) [1]",proteolytic cleavage of free pro peptide (purified away from the C-terminal dimer) [1],"proteolytic cleavage of pro peptide, SDS-PAGE and western blot (500 ng substrate, 100 ng protease, overnight 37° C.; free pro peptide and latent complex) [1]",fraction of proteolytically-cleaved myostatin complex active in the luciferase reporter assay (against a standard curve of C-terminal dimer) [2] [%],"cleavage of synthetic peptide by conditioned medium containing TLL-2, C18 HPLC and mass spectrometry [3]","cleavage of synthetic peptide by conditioned medium containing TLL-2, C18 HPLC and mass spectrometry [4]","cleavage of synthetic peptide by conditioned medium containing TLL-2, C18 HPLC and mass spectrometry [5]","cleavage of synthetic peptide by conditioned medium containing TLL-2, C18 HPLC and mass spectrometry [6]","cleavage of synthetic peptide by conditioned medium containing TLL-2, C18 HPLC and mass spectrometry [7]","cleavage of synthetic peptide by conditioned medium containing TLL-2, C18 HPLC and mass spectrometry [8]","cleavage of synthetic peptide by conditioned medium containing TLL-2, C18 HPLC and mass spectrometry [9]","cleavage of synthetic peptide by conditioned medium containing TLL-2, C18 HPLC and mass spectrometry [10]","cleavage of synthetic peptide by conditioned medium containing TLL-2, C18 HPLC and mass spectrometry [11]","proteolytic cleavage of pro peptide in the purified latent complex, SDS-PAGE and western blot (FIG. 3D) [1]"
mammalian Tolloid (mTLD),mTLD was consistently less active than the other three,All four of these proteinases also cleaved pro peptide that had been purified away from the C-terminal dimer,each of the proteases cleaved the pro peptide whether it was in a purified form or in a complex with the myostatin C-terminal dimer,–,–,–,–,–,–,–,–,–,–,–
"mammalian Tolloid-like-1 (mTLL-1) (enzyme, UniProt Q62381 148-1013, looked up, species assumed) Tolloid-like protein 1: AATSRTERIWPGGVIPYVIGGNFTGSQRAMFKQAMRHWEKHTCVTFTERSDEESYIVFTYRPCGCCSYVGRRGNGPQAISIGKNCDKFGIVVHELGHVIGFWHEHTRPDRDNHVTIIRENIQPGQEYNFLKMEPGEVNSLGERYDFDSIMHYARNTFSRGMFLDTILPSRDDNGIRPAIGQRTRLSKGDIAQARKLYRCPACGETLQESSGNLSSPGFPNGYPSYTHCIWRVSVTPGEKIVLNFTTMDLYKSSLCWYDYIEVRDGYWRKSPLLGRFCGDKVAGVLTSTDSRMWIEFRSSSNWVGKGFAAVYEAICGGEIRKNEGQIQSPNYPDDYRPMKECVWKIMVSEGYHVGLTFQAFEIERHDSCAYDHLEVRDGASENSPLIGRFCGYDKPEDIRSTSNTLWMKFVSDGTVNKAGFAANFFKEEDECAKPDRGGCEQRCLNTLGSYQCACEPGYELGPDRRSCEAACGGLLTKLNGTITTPGWPKEYPPNKNCVWQVIAPSQYRISVKFEFFELEGNEVCKYDYVEIWSGPSSESKLHGKFCGADIPEVMTSHFNNMRIEFKSDNTVSKKGFKAHFFSDKDECSKDNGGCQHECVNTMGSYTCQCRNGFVLHENKHDCKEAECEQKIHSPSGLITSPNWPDKYPSRKECTWVISAIPGHRITLAFNEFEVEQHQECAYDHLEIFDGETEKSPILGRLCGSKIPDPLMATGNEMFIRFISDASVQRKGFQATHSTECGGRLKAESKPRDLYSHAQFGDNNYPGQLDCEWLLVSERGSRLELSFQTFEVEEEADCGYDYVEVFDGLSSKAVGLGRFCGSGPPEEIYSIGDVALIHFHTDDTINKKGFYIRYKSIRYPETMHAKN","Three of the proteinases, BMP-1, mTLL-1, and mTLL-2, were approximately equally effective in cleaving the pro peptide",All four of these proteinases also cleaved pro peptide that had been purified away from the C-terminal dimer,each of the proteases cleaved the pro peptide whether it was in a purified form or in a complex with the myostatin C-terminal dimer,> 50,–,–,–,–,–,–,–,–,–,–
"mammalian Tolloid-like-2 (mTLL-2) (enzyme, UniProt Q9WVM6 147-1012, looked up, species assumed) Tolloid-like protein 2: ATTSRTERIWPGGVIPYVIGGNFTGTQRAIFKQAMRHWEKHTCVTFVERTDEESFIVFSYRTCGCCSYVGRRGGGPQAISIGKNCDKFGIVAHELGHVVGFWHEHTRPDRDQHVTIIRENIQPGQEYNFLKMEAGEVSSLGETYDFDSIMHYARNTFSRGVFLDTILPRRDDNGVRPTIGQRVRLSQGDIAQARKLYKCPACGETLQDTTGNFSAPGFPNGYPSYSHCVWRISVTPGEKIILNFTSMDLFKSRLCWYDYVEIRDGYWRKAPLLGRFCGDKIPESLVSSDSRLWVEFRSSSSSLGKGFFAVYEAMCGGDITKDAGQIQSPNYPDDYRPSKECVWRITVPDGFHVGLTFQSFEIERHDSCAYDYLEIRDGPTEDSTLIGHFCGYEKPEAVKSSANRLWVKFVSDGSINKAGFAANFFKEVDECSWPDHGGCEQRCVNTLGSYTCACDPGYELAADKKTCEVACGGFITKLNGTITSPGWPKEYPTNKNCVWQVVAPVQYRISLQFEAFELEGNDVCKYDFVEVRSGLSPDAKLHGKFCGSETPEVITSQSNNMRVEFKSDNTVSKRGFRAHFFSDKDECAKDNGGCQQECVNTFGSYLCRCRNGYRLHENGHDCKEAGCAYKISSAEGTLMSPNWPDKYPSRKECTWNISSTAGHRVKITFSEFEIEQHQECAYDHLELYDGTDSLAPILGRFCGSKKPDPVVATGSSLFLRFYSDASVQRKGFQAVHSTECGGRLKAEVQTKELYSHAQFGDNNYPSQARCDWVIVAEDGYGVELIFRTFEVEEEADCGYDFMEAYDGYDSSAPRLGRFCGSGPLEEIYSAGDSLMIRFHTDDTINKKGFHARYTSTKFQDALHMRK","Three of the proteinases, BMP-1, mTLL-1, and mTLL-2, were approximately equally effective in cleaving the pro peptide",All four of these proteinases also cleaved pro peptide that had been purified away from the C-terminal dimer,each of the proteases cleaved the pro peptide whether it was in a purified form or in a complex with the myostatin C-terminal dimer,–,"The 40-mer, 30-mer, and 20-mer wild type and R→Q mutant peptides were cleaved by conditioned media containing TLL-2","The 40-mer, 30-mer, and 20-mer wild type and R→Q mutant peptides were cleaved by conditioned media containing TLL-2",the peptides containing the D→A mutation at the P1′ position were not cleaved,the peptides containing the D→A mutation at the P1′ position were not cleaved,"The 40-mer, 30-mer, and 20-mer wild type and R→Q mutant peptides were cleaved by conditioned media containing TLL-2","The 40-mer, 30-mer, and 20-mer wild type and R→Q mutant peptides were cleaved by conditioned media containing TLL-2","The 40-mer, 30-mer, and 20-mer wild type and R→Q mutant peptides were cleaved by conditioned media containing TLL-2","The 40-mer, 30-mer, and 20-mer wild type and R→Q mutant peptides were cleaved by conditioned media containing TLL-2",the peptides containing the D→A mutation at the P1′ position were not cleaved,–
"bone morphogenic protein-1 (BMP-1) (enzyme, UniProt P13497 121-986, looked up, species assumed) Bone morphogenetic protein 1: AATSRPERVWPDGVIPFVIGGNFTGSQRAVFRQAMRHWEKHTCVTFLERTDEDSYIVFTYRPCGCCSYVGRRGGGPQAISIGKNCDKFGIVVHELGHVVGFWHEHTRPDRDRHVSIVRENIQPGQEYNFLKMEPQEVESLGETYDFDSIMHYARNTFSRGIFLDTIVPKYEVNGVKPPIGQRTRLSKGDIAQARKLYKCPACGETLQDSTGNFSSPEYPNGYSAHMHCVWRISVTPGEKIILNFTSLDLYRSRLCWYDYVEVRDGFWRKAPLRGRFCGSKLPEPIVSTDSRLWVEFRSSSNWVGKGFFAVYEAICGGDVKKDYGHIQSPNYPDDYRPSKVCIWRIQVSEGFHVGLTFQSFEIERHDSCAYDYLEVRDGHSESSTLIGRYCGYEKPDDIKSTSSRLWLKFVSDGSINKAGFAVNFFKEVDECSRPNRGGCEQRCLNTLGSYKCSCDPGYELAPDKRRCEAACGGFLTKLNGSITSPGWPKEYPPNKNCIWQLVAPTQYRISLQFDFFETEGNDVCKYDFVEVRSGLTADSKLHGKFCGSEKPEVITSQYNNMRVEFKSDNTVSKKGFKAHFFSDKDECSKDNGGCQQDCVNTFGSYECQCRSGFVLHDNKHDCKEAGCDHKVTSTSGTITSPNWPDKYPSKKECTWAISSTPGHRVKLTFMEMDIESQPECAYDHLEVFDGRDAKAPVLGRFCGSKKPEPVLATGSRMFLRFYSDNSVQRKGFQASHATECGGQVRADVKTKDLYSHAQFGDNNYPGGVDCEWVIVAEEGYGVELVFQTFEVEEETDCGYDYMELFDGYDSTAPRLGRYCGSGPPEEVYSAGDSVLVKFHSDDTITKKGFHLRYTSTKFQDTLHSRK","Three of the proteinases, BMP-1, mTLL-1, and mTLL-2, were approximately equally effective in cleaving the pro peptide",All four of these proteinases also cleaved pro peptide that had been purified away from the C-terminal dimer,each of the proteases cleaved the pro peptide whether it was in a purified form or in a complex with the myostatin C-terminal dimer,–,–,–,–,–,–,–,–,–,–,incubation of the purified latent complex with purified BMP-1 resulted in complete cleavage of the pro peptide to generate a single product
